According to US20210052701A1, “Methods of Treating Vascular Leakage Using CXCL12 Peptides” (The Medical College of Wisconsin, Inc., priority 2018, published 2021):

Columns and labels:
hPPAEC = assay: In vitro vascular permeability assay (FITC-dextran), hPPAEC monolayer, CXCR4/ACKR3 ligands without thrombin; format: cell-based, human; conditions: 50 nM ligand for 10 min, then FITC-dextran; no thrombin
Description: FIGS. 1A-1B show expression of CXCR4, ACKR3 and CXCR4:ACKR3 heteromers on hPPAEC and effects of CXCR4/ACKR3 ligands on hPPAEC monolayer permeability. (A) Detection of CXCR4, ACKR3 and CXCR4:ACKR3 heteromers on hPPAEC by PLA. Typical PLA images for the detection of individual receptors and CXCR4:ACKR3 heteromers. Images show merged PLA/40,6-diamidino-2-phenylindole dihydrochloride (DAPI) signals. Ctrl: Omission of one secondary antibody. (B) hPPAEC were grown to a confluent monolayer on collagen-coated permeable membranes. Cells were then exposed to vehicle or 50 nM of CXCR4/ACKR3 ligands for 10 minutes, as indicated, followed by the addition of FITC-dextran. Endothelial permeability was assessed by measuring the amount of FITC-dextran that permeated through the cell monolayer. N=3 in quadruplicate. No cells: 100% permeability, open squares. RFU: Relative fluorescence units. *: p<0.05 vs. vehicle (2-way ANOVA/Bonferroni's multiple comparison post hoc test).
Cells and cell lines—Human primary pulmonary artery endothelial cells (hPPAEC) (ATCC, PCS-100-022) and the human lung microvascular endothelial cell line HULEC-5a (ATCC, CRL-3244) were cultured in vascular cell basal medium (ATCC, PCS-100-030) with endothelial cell growth kit-VEGF (ATCC, PCS-100-041). The HTLA cell line, a HEK293 cell line stably expressing a tTA-dependent luciferase reporter and a β-arrestin2-TEV fusion gene, was generously provided by the laboratory of Dr. Bryan Roth and maintained in high glucose Dulbecco's Modified Eagle's Medium supplemented with 10% (vol/vol) FBS, 1× non-essential amino acids, 100 U/mL penicillin, 100 μg/mL streptomycin, 50 μg/mL hygromycin B, and 2 μg/mL puromycin. All cells were cultured at 37° C., 5% CO2 in a humidified atmosphere.
In vitro vascular permeability assays—Permeability assays were obtained from Millipore (ECM642) and performed as per manufacturer's instructions. In brief, 96-well collagen-coated permeability assay plates were pre-hydrated for 15 min, 5×10^5 cells were seeded on each well and grown to a confluent monolayer for 48 hours. Fluorescein isothiocyanate (FITC)-dextran (20 μg/mL) was then added on top of the monolayer and the amount of FITC-dextran that permeated through the monolayer was quantified by measuring fluorescence in a Synergy 2 Multi-mode Microplate Reader (BioTek, Winooski, Vt.) at various time points over a 255 min time period.

CXCR4 = molecular target: T1, CXCR4 (Homo sapiens, UniProt P61073); assay: Presto-Tango β-arrestin 2 recruitment assay for CXCR4; format: cell-based
T1 construct: host or cells: HTLA cells (HEK293 line stably expressing a tTA-dependent luciferase reporter and a β-arrestin2-TEV fusion gene)
T1 sequence (P61073 whole entry, the tested form may be a part): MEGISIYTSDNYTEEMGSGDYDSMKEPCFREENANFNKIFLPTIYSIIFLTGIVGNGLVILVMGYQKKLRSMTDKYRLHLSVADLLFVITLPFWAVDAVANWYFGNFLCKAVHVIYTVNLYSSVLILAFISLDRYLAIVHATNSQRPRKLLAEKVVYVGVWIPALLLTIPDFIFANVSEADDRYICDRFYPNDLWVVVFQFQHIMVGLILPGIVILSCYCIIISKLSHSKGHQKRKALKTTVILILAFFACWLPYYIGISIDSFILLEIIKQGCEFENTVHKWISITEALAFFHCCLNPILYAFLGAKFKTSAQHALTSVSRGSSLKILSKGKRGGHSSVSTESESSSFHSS
Description: FIGS. 6A-6F show Presto-Tango β-arrestin 2 recruitment assays for CXCR4 (A-C) and ACKR3 (D-F). RLU %: % of the luminescence signal for 1 μM CXCL12α. N=9 for CXCL12a and n=3 for all other proteins.
Presto-Tango β-arrestin 2 recruitment assay—The PRESTO-Tango (parallel receptorome expression and screening via transcriptional out-put, with transcriptional activation following arrestin translocation) assay was performed as recently described. The Tango plasmids were a gift from Dr. Bryan Roth (all from Addgene). HTLA cells (2.5×10^5/well) were seeded in a 6-well plate and transfected with 1.5 μg of the Tango plasmids using Lipofectamine 3000 (ThermoScientific). The following day, transfected HTLA cells (1×10^5 cells/well) were plated onto Poly-L-Lysine pre-coated 96-well micro-plates and allowed to attach to the plate surface for at least 4 hours prior to treatment. Proteins used for treatment were prepared in twice the final concentration in culture media, added at a 1:1 vol/vol ratio and incubated overnight at 37° C., 5% CO2 in a humidified environment. The following morning, media was removed from cell culture plates and replaced with a 100 μL 1:5 mixture of Bright-Glo (Promega) and 1×HBSS, 20 mM HEPES solution. Plates were then incubated at room temperature before measuring luminescence on a Biotek Synergy II plate reader.

CXCL12 = CXCL12 (Homo sapiens, UniProt P48061); conditions: read-out: dimerization Kd; cited from earlier work
Sequence of CXCL12 (P48061 22-89 limits assumed): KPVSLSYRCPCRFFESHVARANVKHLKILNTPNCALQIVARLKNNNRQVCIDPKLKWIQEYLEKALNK

Substance: CXCL12: Wild-type CXCL12 (SEQ ID NO:1), cognate agonist of CXCR4 and ACKR3
- effect on hPPAEC monolayer permeability (hPPAEC): enhanced hPPAEC barrier function
- potency (EC50) to recruit β-arrestin 2 to CXCR4, compared with CXCL12α (CXCR4): no statistically significant differences
- Kd (CXCL12): 140 µM
